Molecular target: human IL-17A (human) (UniProt Q16552)

IC50, picomole, as defined by the cell IL6 test: 1100 picomole
Substance: AIN457 (anti-IL-17A antibody by Novartis)
